Measurements taken from the RNAGym collection of RNA variant scans (doi:10.1021/acssynbio.7b00057).

B1: Pistol ribozyme (parent)
chain: GGGUCGUUGUUCCAUAAUCGCGUGGAUAUGGCACGCAAGUUUCUACCGGGCACCGUAAAUGUCCGACUGGAGCCGUUCGGGCGGCUAUAAACAGACCUCAGGCCCGAAGCGUGGCGGCACCUGCCGCCGGUGGUAAAAAAGAUCGGAAGAGCACACGUCU

Variants of: B1
Assay: aptazyme ON/OFF ratio, guanine; higher = stronger switching; co-transcriptional cleavage with and without guanine

Variant | aptazyme ON/OFF ratio
G9A U11C C13U | 1.11
G9A U11C C13A | 1.03
G9A U11C C13G | 1.11
G9A U11A C12G C13A | 1.39
G9A U11A C12G C13U | 1.41
G9A U11A C12G C13G | 1.2
G9A U10G U11G C12G C13U | 1.15
G9A U10G U11G C12G C13G | 1.22
G9A U10G U11G C12G C13A | 1.16
G9A U10G U11G C12G | 1.25
G9A U10G U11G C12U | 1.48
G9A U10G U11G C12A | 1.11
G9A U11G C12A | 1.1
G9A U11A C12U C13U | 1.91
G9A U11A C12U C13A | 1.37
G9A U11A C12U C13G | 1.33
G9A U10G U11C C12U C13G | 1.22
G9A U10G U11C C12U C13U | 1.4
G9A U10G U11C C12U C13A | 1.26
G9A U11A C12A C13G | 1.29
G9A U11A C12A C13A | 1.33

Variant | aptazyme ON/OFF ratio
G9A U11A C12A C13U | 1.36
G9A U11A | 2.53
G9A U11G | 2.2
G9A U11C | 1.12
G9A U10G C12G C13G | 1.21
G9A U10G C12G C13A | 1.19
G9A U10G C12G C13U | 1.29
G9A U10C C12G | 1.32
G9A U10C C12U | 1.5
G9A U10C C12A | 1.38
G9A U10C U11G C12A C13G | 1.3
G9A U10C U11G C12A C13A | 1.22
G9A U10C U11G C12A C13U | 1.21
G9A U10G U11G | 1.11
G9A U10G U11C | 1.1
G9A U10G U11A | 1.06
G9A U11C C12G C13A | 1.28
G9A U11C C12G C13U | 1.33
G9A U11C C12G C13G | 1.15
G9A U10C C13A | 1.08
G9A U10C C13U | 1.23

Variant | aptazyme ON/OFF ratio
G9A U10C C13G | 1.03
G9A U10C U11A C12G C13A | 1.14
G9A U10C U11A C12G C13G | 1.31
G9A U10C U11A C12G C13U | 1.36
G9A U10C C12A C13U | 1.19
G9A U10C C12A C13A | 1.46
G9A U10C C12A C13G | 1.29
G9A U10C U11A | 2.25
G9A U10C U11C | 1.06
G9A U10C U11G | 1.86
G9A U10G U11A C13A | 1.01
G9A U10G U11A C13U | 1.05
G9A U10G U11A C13G | 1.04
G9A U10G | 3.45
G9A U10C | 3.12
G9A U10G U11C C13A | 1.16
G9A U10G U11C C13U | 1.09
G9A U10G U11C C13G | 1.12
G9A U10G U11G C12A C13A | 1.19
G9A U10G U11G C12A C13G | 1.13
G9A U10G U11G C12A C13U | 1.25

Variant | aptazyme ON/OFF ratio
G9A U10G C12U C13G | 1.35
G9A U10G C12U C13A | 1.37
G9A U10G C12U C13U | 1.05
G9A U11C C12G | 1.45
G9A U11C C12U | 1.35
G9A U11C C12A | 1.38
G9A U11C C12U C13A | 1.41
G9A U11C C12U C13G | 1.38
G9A U11C C12U C13U | 1.55
G9A U10C U11C C13A | 1.02
G9A U10C U11C C13U | 1.01
G9A U10C U11C C13G | 1.07
G9A U10C U11C C12U | 1.06
G9A U10C U11C C12G | 1.18
G9A U10C U11C C12A | 1.1
G9A U10C U11A C12U C13U | 1.22
G9A U10C U11A C12U C13G | 1.29
G9A U10C U11A C12U C13A | 1.35
G9A U10C U11G C12U C13G | 1.43
G9A U10C U11G C12U C13U | 1.4
G9A U10C U11G C12U C13A | 1.37
